Results from patent US11123408B2, “Compositions and methods for treating nonsteroidal anti-inflammatory drug (NSAID) associated coagulopathy, thrombocytopenia, glanzmann's thrombasthenia, and/or thrombosis” (YALE UNIVERSITY, priority 2011, dated 2021).

Experiments:
[1] = Ap3A hydrolysis by NPP enzymes (linked malachite green assay, absorbance change at 259 nm, HPLC); type: biochemical
Experimental: (§1) NPP4 nucleotide substrates were identified by directly detecting the free phosphate (Pi) product using malachite green (ADP substrate) or by a linked hydrolysis assay with alkaline phosphatase combined with malachite green (lipid substrates and nucleotide substrates without terminal P1) to measure released Pi. 50 μM substrate P1 equivalents (e.g. 25 μM ADP) were treated with 50 nM NPP4 for 1 hr 37 min (lipids) or 3 hr 15 min (all other substrates). For substrates without terminal phosphates, 10 units of calf intestinal alkaline phosphatase (M0290S, 10,000 units/mL, New England Biolabs, Ipswich, Mass.) was added for a final reaction volume of 50 μL. 100 μL of malachite green (BIOMOL GREEN™, Enzo Life Sciences, Plymouth Meeting, Pa.) was added to quench the reactions. The amount of phosphate released was measured by absorbance at 620 nm by a Biotek Synergy Mx plate reader (Winooski, Vt.) in 96-well plates (3679, Corning Inc., Corning, N.Y.) and compared against a phosphate standard curve.
(§2) The kinetics of the steady state Ap3A/Ap4A cleavage by NPP4 was measured from time courses of absorbance change at 259 nm using a UV spectrophotometer with a 0.1 cm optical path length cuvette or a stopped-flow device with a 0.2 cm optical path length cell. The enzymology reactions in 50 mM Tris pH 8.0, 140 mM NaCl, 5 mM KCl, 1 mM MgCl2 and 1 mM CaCl2 were started by addition of 1 μM NPP4 to varying concentrations of Ap3A/Ap4A (up to 800 μM) solution (UV spectrophotometer) or by rapid mixing of NPP4 and Ap3A/Ap4A (stopped-flow). The substrate concentrations higher than 800 μM have absorption too high to be measured by a UV spectrophotometer and stopped-flow, and were therefore measured by HPLC. […] Therefore, the rate of a product production or enzyme turnover measured by the absorption change assay can be calculated by the rate of absorption change
(§3) [formula] according to the following formula;
[formula] where Δl is optical path length. The following absorption coefficients were used: Ap3A: 25.75 mM^−1 cm^−1. Ap4A: 25.4 mM^−1 cm^−1. AMP, ADP, and ATP: 15.4 mM^−1 cm^−1. ADP Receptor Inhibitor Assay for NPP4 Inhibition
(§4) The HPLC protocol used to measure Ap3A/Ap4A cleavage by NPP4 and for product identification is modified from that of Stocchi et al. (1985, Anal Biochem 146:118-24). The reactions containing varying concentrations of Ap3A/Ap4A in the same buffer as in the absorbance change assay were started by addition of 0.2-1 μM NPP4 and quenched at various time points by equal volume of 3 M formic acid, or 0.5 N KOH and re-acidified by glacial acetic acid to pH 6. The quenched reaction solution was diluted systematically and loaded a HPLC system (Waters, Milford Mass.) and substrates and products were monitored by UV absorbance at 254 or 259 nm. Substrates and products were separated on a C18, 5 μm 250×4.6 mm HPLC column (Higgins Analytical, Mountain View, Calif.), using 15 mM ammonium acetate pH 6.0 solution, with a 0% to 10% (or 20%) methanol gradient. The products and substrate were quantified according to the integration of their correspondent peaks and the formula:
[formula] where [substrate]0 is the initial substrate concentration. The extinction coefficients of Ap3A, Ap4A, AMP, ADP and ATP used in the formula were the same as those used in absorption change assay. If monitoring at 254 nm, substrate and product standards run on the same day as the reactions were used to convert integrated product/substrate peak areas to concentrations. […]

[2] = Ap4A hydrolysis by NPP enzymes (linked malachite green assay, absorbance change at 259 nm, HPLC); type: biochemical
Experimental: as §1, §2, §3
[formula] where Δl is optical path length. The following absorption coefficients were used: Ap3A: 25.75 mM^−1 cm^−1. Ap4A: 25.4 mM^−1 cm^−1. […]
as §4, with “Substrates and products were separated on a C18, 5 μm 250×4.6 mm HPLC column (Higgins Analytical, Mountain View, Calif.), using 15 mM ammonium acetate pH 6.0 solution, with a 0% to 10% (or 20%) methanol gradient.” left out, “formula: […]” for “formula:”

B1: NPP4: soluble recombinant extracellular domain of human NPP4 (NCBI AAH18054.1, residues 1-407 of SEQ ID NO:1), expressed in insect cells (protein, listed as Homo sapiens)
chain: MKLLVILLFSGLITGFRSDSSSSLPPKLLLVSFDGFRADYLKNYEFPHLQNFIKEGVLVEHVKNVFITKTFPNHYSIVTGLYEESHGIVANSMYDAVTKKHFSDSNDKDPFWWNEAVPIWVTNQLQENRSSAAAMWPGTDVPIHDTISSYFMNYNSSVSFEERLNNITMWLNNSNPPVTFATLYWEEPDASGHKYGPEDKENMSRVLKKIDDLIGDLVQRLKMLGLWENLNVIITSDHGMTQCSQDRLINLDSCIDHSYYTLIDLSPVAAILPKINRTEVYNKLKNCSPHMNVYLKEDIPNRFYYQHNDRIQPIILVADEGWTIVLNESSQKLGDHGYDNSLPSMHPFLAAHGPAFHKGYKHSTINIVDIYPMMCHILGLKPHPNNGTFGHTKCLLVDQWCINLPEA
Ap3A cleavage / hydrolysis (qualitative) ([1]; linked assay or steady state enzymatic studies): detected cleavage
maximum catalytic turnover rate (kcat) for Ap3A ([1]; substrate Ap3A): ~4 s⁻¹
kcat, Ap3A Hydrolysis by NPP4 ([1]; substrate Ap3A, steady state): 4.2 s^−1NPP4^−1
Km ([1]; substrate Ap3A, steady state, read-out: KM, Ap3A Hydrolysis by NPP4): 843 µM
Ap4A cleavage (qualitative) ([2]; linked alkaline phosphatase / malachite green assay): detected cleavage
maximum catalytic turnover rate (kcat) for Ap4A ([2]; substrate Ap4A): ~1 s^−l
kcat, Ap4A Hydrolysis by NPP4 ([2]; substrate Ap4A, steady state): 0.78 s^−1NPP4^−1
Km ([2]; substrate Ap4A, steady state, read-out: KM, Ap4A Hydrolysis by NPP4): 210 µM
